Data taken from patent publication US9993529B2, “Stable formulations of a hyaluronan-degrading enzyme” (Halozyme, Inc., priority 2011, dated 2018).
Like-named read-outs stand apart in the source and are kept apart here.

Assays:
[1] = Differential scanning calorimetry, Tm of rHuPH20; assay type: physicochemical; settings: DSC, presence of […] m-cresol
[2] = Dynamic light scattering, particle size and apparent melting temperature of rHuPH20; assay type: physicochemical; parameters: unit not given here
rHuPH20 = biological target: T1, rHuPH20 (Homo sapiens, UniProt P38567); settings: for retained % of the original activity / rHuPH20 activity (initial 600 U/mL): 75 mM NaCl
T1 sequence (P38567 36-482): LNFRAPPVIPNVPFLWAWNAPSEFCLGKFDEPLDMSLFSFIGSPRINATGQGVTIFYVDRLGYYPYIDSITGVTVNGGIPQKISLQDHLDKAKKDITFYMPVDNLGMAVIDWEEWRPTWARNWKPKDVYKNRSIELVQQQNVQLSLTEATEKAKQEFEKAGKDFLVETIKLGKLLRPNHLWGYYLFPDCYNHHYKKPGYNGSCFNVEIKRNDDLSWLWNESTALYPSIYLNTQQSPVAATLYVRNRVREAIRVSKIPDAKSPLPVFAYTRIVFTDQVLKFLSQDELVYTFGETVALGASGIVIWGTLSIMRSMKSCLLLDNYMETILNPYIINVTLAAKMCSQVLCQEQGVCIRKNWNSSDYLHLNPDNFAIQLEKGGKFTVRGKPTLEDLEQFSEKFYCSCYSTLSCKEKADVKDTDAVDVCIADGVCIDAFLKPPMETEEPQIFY
Protocol: The activity of a hyaluronan degrading enzyme can be assessed using methods well known in the art. […] A Hyaluronidase Reference Standard (USP) or National Formulary (NF) Standard Hyaluronidase solution can be used in an assay to ascertain the activity, in units, of any hyaluronidase. In one example, activity is measured using a microturbidity assay. […] The turbidity of the resulting sample is measured at 640 nm after an additional development period.

[3] = 1 week 30° C., pH 7.1, 10 mg/mL HA

B1: rHuPH20: secreted soluble recombinant human PH20 hyaluronidase expressed in CHO cells (nucleic acid encoding amino acids 36-482 of SEQ ID NO:1) (protein, listed as Homo sapiens)
chain: LNFRAPPVIPNVPFLWAWNAPSEFCLGKFDEPLDMSLFSFIGSPRINATGQGVTIFYVDRLGYYPYIDSITGVTVNGGIPQKISLQDHLDKAKKDITFYMPVDNLGMAVIDWEEWRPTWARNWKPKDVYKNRSIELVQQQNVQLSLTEATEKAKQEFEKAGKDFLVETIKLGKLLRPNHLWGYYLFPDCYNHHYKKPGYNGSCFNVEIKRNDDLSWLWNESTALYPSIYLNTQQSPVAATLYVRNRVREAIRVSKIPDAKSPLPVFAYTRIVFTDQVLKFLSQDELVYTFGETVALGASGIVIWGTLSIMRSMKSCLLLDNYMETILNPYIINVTLAAKMCSQVLCQEQGVCIRKNWNSSDYLHLNPDNFAIQLEKGGKFTVRGKPTLEDLEQFSEKFYCSCYSTLSCKEKADVKDTDAVDVCIADGVCIDAFLKPPMETEEPQIFY
modifications: precursor human PH20
[1]
  reduction of Tm of rHuPH20: about 2 °C
[2]; 20 ° C.
  Average particle size (DLS): 9.48
[2]; 22 ° C.
  Average particle size (DLS): 9.19
[2]; 24 ° C.
  Average particle size (DLS): 9.89
[2]; 26 ° C.
  Average particle size (DLS): 9.96
[2]; 28 ° C.
  Average particle size (DLS): 9.27
[2]; 30 ° C.
  Average particle size (DLS): 8.94
[2]; 32 ° C.
  Average particle size (DLS): 8.96
[2]; 34 ° C.
  Average particle size (DLS): 9.42
[2]; 36 ° C.
  Average particle size (DLS): 9.28
[2]; 38 ° C.
  Average particle size (DLS): 8.91
[2]; 40 ° C.
  Average particle size (DLS): 9.39
[2]; 42 ° C.
  Average particle size (DLS): 9.72
[2]; 44 ° C.
  Average particle size (DLS): 11.36
[2]; 46 ° C.
  Average particle size (DLS): 13.08
[2]; 48 ° C.
  Average particle size (DLS): 21.35
[2]; 50 ° C.
  Average particle size (DLS): 22.74
[2]; 52 ° C.
  Average particle size (DLS): 28.50
[2]; 54 ° C.
  Average particle size (DLS): 32.95
[2]; 56 ° C.
  Average particle size (DLS): 37.01
rHuPH20; 1 mM methionine, 30° C., one month
  rHuPH20 enzymatic activity: 525 U/mL
rHuPH20; 20 mM methionine, 30° C., one month
  rHuPH20 enzymatic activity: 522 U/mL
rHuPH20; 1 week 30° C., pH 7.1, 1 mg/mL HA
  retained % of the original activity: 57%
rHuPH20; 1 week 30° C., pH 7.1, 5.5 mg/mL HA, 100 mM NaCl
  % of the original rHuPH20 remained: 68%
rHuPH20; [3]
  rHuPH20 activity (initial 600 U/mL): 510 U/mL
  retained % of the original activity: 85%
rHuPH20; 2-8° C., 5 Months, pH 7.0, 50 mM NaCl
  rHuPH20 enzymatic activity: 494.4796
rHuPH20; 2-8° C., 5 Months, pH 7.0, 80 mM NaCl
  rHuPH20 enzymatic activity: 575.3274
rHuPH20; 2-8° C., 5 Months, pH 7.0, 110 mM NaCl
  rHuPH20 enzymatic activity: 615.3546
rHuPH20; 2-8° C., 5 Months, pH 7.0, 140 mM NaCl
  rHuPH20 enzymatic activity: 582.4274
rHuPH20; 2-8° C., 5 Months, pH 7.2, 50 mM NaCl
  rHuPH20 enzymatic activity: 481.6035
rHuPH20; 2-8° C., 5 Months, pH 7.2, 80 mM NaCl
  rHuPH20 enzymatic activity: 566.2521
rHuPH20; 2-8° C., 5 Months, pH 7.2, 110 mM NaCl
  rHuPH20 enzymatic activity: 593.2027
rHuPH20; 2-8° C., 5 Months, pH 7.2, 140 mM NaCl
  rHuPH20 enzymatic activity: 585.9948
rHuPH20; 2-8° C., 5 Months, pH 7.4, 50 mM NaCl
  rHuPH20 enzymatic activity: 526.6628
rHuPH20; 2-8° C., 5 Months, pH 7.4, 80 mM NaCl
  rHuPH20 enzymatic activity: 564.7769
rHuPH20; 2-8° C., 5 Months, pH 7.4, 110 mM NaCl
  rHuPH20 enzymatic activity: 618.3856
rHuPH20; 2-8° C., 5 Months, pH 7.4, 140 mM NaCl
  rHuPH20 enzymatic activity: 585.9813
rHuPH20; 2-8° C., 5 Months, pH 7.6, 80 mM NaCl
  rHuPH20 enzymatic activity: 546.4209
rHuPH20; 2-8° C., 5 Months, pH 7.6, 110 mM NaCl
  rHuPH20 enzymatic activity: 581.6326
rHuPH20; 2-8° C., 5 Months, pH 7.6, 140 mM NaCl
  rHuPH20 enzymatic activity: 594.6197
rHuPH20; 2-8° C., 9 Months, pH 7.0, 50 mM NaCl
  rHuPH20 enzymatic activity: 436.5115
rHuPH20; 2-8° C., 9 Months, pH 7.0, 80 mM NaCl
  rHuPH20 enzymatic activity: 513.9692
rHuPH20; 2-8° C., 9 Months, pH 7.0, 110 mM NaCl
  rHuPH20 enzymatic activity: 551.0218
rHuPH20; 2-8° C., 9 Months, pH 7.0, 140 mM NaCl
  rHuPH20 enzymatic activity: 554.6513
rHuPH20; 2-8° C., 9 Months, pH 7.2, 50 mM NaCl
  rHuPH20 enzymatic activity: 451.8324
rHuPH20; 2-8° C., 9 Months, pH 7.2, 80 mM NaCl
  rHuPH20 enzymatic activity: 518.0740
rHuPH20; 2-8° C., 9 Months, pH 7.2, 110 mM NaCl
  rHuPH20 enzymatic activity: 553.1847
rHuPH20; 2-8° C., 9 Months, pH 7.2, 140 mM NaCl
  rHuPH20 enzymatic activity: 536.7846
rHuPH20; 2-8° C., 9 Months, pH 7.4, 50 mM NaCl
  rHuPH20 enzymatic activity: 466.1871
rHuPH20; 2-8° C., 9 Months, pH 7.4, 80 mM NaCl
  rHuPH20 enzymatic activity: 509.9032
rHuPH20; 2-8° C., 9 Months, pH 7.4, 110 mM NaCl
  rHuPH20 enzymatic activity: 560.4847
rHuPH20; 2-8° C., 9 Months, pH 7.4, 140 mM NaCl
  rHuPH20 enzymatic activity: 542.4534
rHuPH20; 2-8° C., 9 Months, pH 7.6, 50 mM NaCl
  rHuPH20 enzymatic activity: 464.8964
rHuPH20; 2-8° C., 9 Months, pH 7.6, 80 mM NaCl
  rHuPH20 enzymatic activity: 515.3382
rHuPH20; 2-8° C., 9 Months, pH 7.6, 110 mM NaCl
  rHuPH20 enzymatic activity: 531.9202
rHuPH20; 2-8° C., 9 Months, pH 7.6, 140 mM NaCl
  rHuPH20 enzymatic activity: 523.5385
rHuPH20; insulin/rHuPH20 follow up study, starting
  rHuPH20 enzymatic activity: 650 U/mL
rHuPH20; rHuPH20/insulin, 1 week 30° C., pH 7.1, 1 mg/mL HA
  rHuPH20 activity (initial 600 U/mL): 341 U/mL
rHuPH20; regular insulin/rHuPH20, 2-8° C., 5 Months, pH 7.6, 50 mM NaCl
  rHuPH20 enzymatic activity: 508.0571
